# According to article PMC10244618:
# Several values for one entry are separate records, joined by “and”; a condition that tells them apart may be missing. Equal entries are not always repeated.
# B1: NF2 (merlin) isoform 7, human, full length (507 aa, lacks exons 2-3 = isoform-1 residues 39-121; exon-16 C-terminus), P35240-4 (parent)
# chain: MAGAIASRMSFSSLKRKQPKTFTVRIVTMDAEMEFNCEVKKQILDEKIYCPPEASVLLASYAVQAKYGDYDPSVHKRGFLAQEELLPKRVINLYQMTPEMWEERITAWYAEHRGRARDEAEMEYLKIAQDLEMYGVNYFAIRNKKGTELLLGVDALGLHIYDPENRLTPKISFPWNEIRNISYSDKEFTIKPLDKKIDVFKFNSSKLRVNKLILQLCIGNHDLFMRRRKADSLEVQQMKAQAREEKARKQMERQRLAREKQMREEAERTRDELERRLLQMKEEATMANEALMRSEETADLLAEKAQITEEEAKLLAQKAAEAEQEMQRIKATAIRTEEEKRLMEQKVLEAEVLALKMAEESERRAKEADQLKQDLQEAREAERRAKQKLLEIATKPTYPPMNPIPAPLPPDIPSFNLIGDSLSFDFKDTDMKRLSMEIEKEKVEYMEKSKHLQEQLNELKTEIEALKLKERETALDILHNENSDRGGSSKHNTIKKPQAQGRRPICI
# Variants of: B1
# Experiment: reverse yeast two-hybrid deep mutational scan (rY2H-seq): NF2 isoform 7 mutant library as bait mated with wild-type prey strains; selection on medium lacking adenine for non-interacting pairs; NextSeq paired-end sequencing; enrichment vs …
# Conditions: with EMILIN1 (elastin microfibril interfacer 1), Q9Y6C2; yeast diploids after mating (RBait_S3 x RPrey_S3), 30 °C, selection for reporter genes on NB agar; human ABL2 co-expressed as the kinase-dead K35M mutant …; HIGHER = WEAKER BINDING (the opposite of display enrichments): higher = stronger loss of interaction: reverse Y2H selects yeast in which bait and prey do NOT interact (growth without adenine), so a …; hits-only table; scale: rY2H score; numbering: uniprot, sequence starts at 1
row,Variant,enrichment
1,S172F,1.58
2,A406F,10.8
3,I213F,7.19 and 3.36

# Same assay, conditions: with EMILIN1 (elastin microfibril interfacer 1), Q9Y6C2; yeast diploids after mating (RBait_S3 x RPrey_S3), 30 °C, selection for reporter genes on NB agar; human tyrosine kinase ABL2 co-expressed as the active kinase …; HIGHER = WEAKER BINDING (the opposite of display enrichments): higher = stronger loss of interaction: reverse Y2H selects yeast in which bait and prey do NOT interact (growth without adenine), so a …; hits-only table; scale: rY2H score; numbering: uniprot, sequence starts at 1
row,Variant,enrichment
1,I505F,1.61
2,I213F,3.35
3,N402F,4.91

# Same assay, conditions: with KDM1A (lysine-specific histone demethylase 1A; the table's label AOF2 is a gene synonym of KDM1A), O60341; yeast diploids after mating (RBait_S3 x RPrey_S3), 30 °C, selection for reporter genes on NB agar; human tyrosine kinase ABL2 co-expressed as the active kinase …; HIGHER = WEAKER BINDING (the opposite of display enrichments): higher = stronger loss of interaction: reverse Y2H selects yeast in which bait and prey do NOT interact (growth without adenine), so a …; hits-only table; scale: rY2H score; numbering: uniprot, sequence starts at 1
row,Variant,enrichment
1,I505F,2.14
2,I213F,6.76
3,S60F,3.51

# Same assay, conditions: with NF2 C-terminal domain (wild type; homomeric NF2-NF2 interaction), P35240; yeast diploids after mating (RBait_S3 x RPrey_S3), 30 °C, selection for reporter genes on NB agar; human ABL2 co-expressed as the kinase-dead K35M mutant …; HIGHER = WEAKER BINDING (the opposite of display enrichments): higher = stronger loss of interaction: reverse Y2H selects yeast in which bait and prey do NOT interact (growth without adenine), so a …; hits-only table; partner unresolved; scale: rY2H score; numbering: uniprot, sequence starts at 1
row,Variant,enrichment
1,I505F,2.29
2,I213F,4.21

# Same assay, conditions: with PIK3R3 (phosphatidylinositol 3-kinase regulatory subunit gamma), Q92569; yeast diploids after mating (RBait_S3 x RPrey_S3), 30 °C, selection for reporter genes on NB agar; human tyrosine kinase ABL2 co-expressed as the active kinase …; HIGHER = WEAKER BINDING (the opposite of display enrichments): higher = stronger loss of interaction: reverse Y2H selects yeast in which bait and prey do NOT interact (growth without adenine), so a …; hits-only table; scale: rY2H score; numbering: uniprot, sequence starts at 1
row,Variant,enrichment
1,L57F,1.98
2,S204F,3.76 and 3.21
3,I213F,15.3

# Same assay, conditions: with KDM1A (lysine-specific histone demethylase 1A; the table's label AOF2 is a gene synonym of KDM1A), O60341; yeast diploids after mating (RBait_S3 x RPrey_S3), 30 °C, selection for reporter genes on NB agar; human ABL2 co-expressed as the kinase-dead K35M mutant …; HIGHER = WEAKER BINDING (the opposite of display enrichments): higher = stronger loss of interaction: reverse Y2H selects yeast in which bait and prey do NOT interact (growth without adenine), so a …; hits-only table; scale: rY2H score; numbering: uniprot, sequence starts at 1
row,Variant,enrichment
1,N402F,24.7
